Laboratory results as given in publication PMC11551953, “Probing Electrostatic and Hydrophobic Associative Interactions in Cells” (The Journal of Physical Chemistry. B, 2024).
Where no end group is shown, it is not given here.

Key:
GFP(ESE)4 = assay: other fluorescence titration; probe (1 μM) with BSA titrated up to 100 mg/mL (2 mM) in a 96-well plate; ratio of excitation at 405 nm/488 nm, emission 520 nm; 10 mM NaPi, 100 mM KCl, pH 7.4; room temperature; fitted to a Hill function; KD of BSA (+92e) with GFP(EEE)4 called apparent
GFP(EEE)4 = assay: as above
GFP(KLL)4 = assay: as above
[1] = biological target: cationic and hydrophobic probes; assay: as above
GFP(ESS)4 = assay: as above
[2] = biological target: T1, wtBSA(-17e), bovine serum albumin (bovine, UniProt P02769 25-607); assay: other fluorescence titration; BSA titrated to 1 uM probe (His-tag removed) in a 96-well plate; excitation ratio 405 nm/488 nm at 520 nm emission; 10 mM NaPi, 100 mM KCl, pH 7.4, room temperature; ratio against BSA concentration fitted to a Hill function (k = KD, n = Hill coefficient); errors are errors in the fits; conditions: both partners purified
T1 construct: bovine serum albumin, wild type; also called wtBSA (−18e); BSA(-18e); source: bought: Sigma-Aldrich; further purified by repeated concentration on an Amicon 10 kD cutoff filter
T1 sequence (P02769 25-607): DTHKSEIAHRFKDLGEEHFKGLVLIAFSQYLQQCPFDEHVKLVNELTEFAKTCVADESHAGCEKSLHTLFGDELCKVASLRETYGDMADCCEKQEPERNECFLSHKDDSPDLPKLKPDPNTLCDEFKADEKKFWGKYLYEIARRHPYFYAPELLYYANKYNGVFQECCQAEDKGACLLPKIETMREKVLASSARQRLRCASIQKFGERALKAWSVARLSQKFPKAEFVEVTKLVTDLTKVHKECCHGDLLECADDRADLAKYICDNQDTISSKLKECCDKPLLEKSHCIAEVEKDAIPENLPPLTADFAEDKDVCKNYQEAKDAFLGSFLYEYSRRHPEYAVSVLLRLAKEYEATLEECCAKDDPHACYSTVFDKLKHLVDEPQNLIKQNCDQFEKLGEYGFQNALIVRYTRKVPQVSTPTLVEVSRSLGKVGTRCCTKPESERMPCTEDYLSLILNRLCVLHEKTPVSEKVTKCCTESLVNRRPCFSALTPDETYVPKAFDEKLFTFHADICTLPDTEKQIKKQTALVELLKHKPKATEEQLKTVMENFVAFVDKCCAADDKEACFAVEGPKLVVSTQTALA

Chain of bovine serum albumin (BSA), wild type (P02769 25-607): as above

## bovine serum albumin (BSA), wild type (from UniProt P02769 25-607) (natural protein)
GFP(ESE)4
  Kd: > 1000 µM
GFP(EEE)4
  Kd: > 1000 µM
GFP(KLL)4
  Kd: 100 to 200 µM
[1]
  Kd: 100 to 200 µM
GFP(ESS)4
  Kd: > 1000 µM

## KLLKLLKLLKLL (other, also: fused to cpGFP reporter, not in chain) [GFP(KLL)4]
[2]
  Kd: 110 µM

## KLKKLKKLKKLK (other, also: fused to cpGFP reporter, not in chain) [GFP(KLK)4]
[2]
  Kd: 220 µM

## KKKKKKKKKKKK (other, also: fused to cpGFP reporter, not in chain) [GFP(KKK)4]
[2]
  Kd: 170 µM
